The data set has as its system advanced NSCLC patients. The experiment in a line: Toxicity: grade3-4 hypertension versus genotype, E4599 subset. The format is in vivo, human. The following applies: bevacizumab arm. The source says: The problem, however, is that there is hardly any power to do this. There were a total of 30 cases on E4599 who reported grade3-4 hypertension of any attribution type on this study. Once these cases are merged with the correlatives dataset, there is an overlap of only 7 hypertension cases in the correlative study. The distribution of hypertension versus genotype for these VEGF polymorphisms, as well as the WNK1 polymorphisms is as follows: […]

As for Bevacizumab, the “HTN (number of patients, grade3-4 hypertension)” value by setting is: (VEGF634 CC) 1; (VEGF634 GC) 0; (VEGF634 GG) 6; (VEGF1498 CT) 1; (WNK1-2158501 GG (so in the source)) 1; (WNK1-110644560 GG) 0. Moreover, the “HTN (number of patients, grade3-4 hypertension)” value (WNK1-110644560 GT) was 1 and the “HTN (number of patients, grade3-4 hypertension)” value (WNK1-110644560 TT) is on record as 6. For the same substance, the “No HTN (number of patients)” value came to 10 (VEGF634 CC); 18 (VEGF1498 CC); 21 (VEGF1498 CT); 17 (VEGF1498 TT); 18 (WNK1-2158501 TT (so in the source)); 7 (WNK1-110644560 GG). Further, the “No HTN (number of patients)” value (WNK1-110644560 TT) is reported as 18.

The values above are taken from US20120100134A1, “GENETIC VARIANTS IN ANGIOGENESIS PATHWAY ASSOCIATED WITH CLINICAL OUTCOME” (University of Southern California, priority 2009, published 2012).
